From US20240239899A1 (Memorial Sloan Kettering, published 2024) come the findings set out here.

Test [1] addresses T1, HLA-A2 molecule on T2 cells (T2 cells alone, not pulsed) (human).
T1 construct: Stands both for the target 'T2 cells alone' and for the partner of the pulsed peptides in the T2 stabilization assays; also called HLA-A02
Description: flow cytometry, unpulsed T2 cells, secondary anti-His-tag mAb. In general terms: Flow cytometry measures light scatter and fluorescence of single cells or particles in a stream.

Test [2] concerns the target b-catenin phosphopeptide/HLA-A2 complex on T2 cells (human, phosphoserine at position 4). Description: flow cytometry, T2 cells pulsed with 20 µg/ml peptide (FIG. 11).
Test [3] addresses CCCK phosphopeptide/HLA-A2 complex on T2 cells (human, phosphoserine at position 7). The description is as above.
The target in test [4] is T1, HLA-A2 molecule on T2 cells (T2 cells …). Description: flow cytometry, titration of 6B1 on unpulsed T2 cells (FIG. 1C).

B1: 6B1 BisAb h2+2 (L2K scFv inserted into the upper hinge of 6B1 IgG1) (bispecific antibody)
heavy: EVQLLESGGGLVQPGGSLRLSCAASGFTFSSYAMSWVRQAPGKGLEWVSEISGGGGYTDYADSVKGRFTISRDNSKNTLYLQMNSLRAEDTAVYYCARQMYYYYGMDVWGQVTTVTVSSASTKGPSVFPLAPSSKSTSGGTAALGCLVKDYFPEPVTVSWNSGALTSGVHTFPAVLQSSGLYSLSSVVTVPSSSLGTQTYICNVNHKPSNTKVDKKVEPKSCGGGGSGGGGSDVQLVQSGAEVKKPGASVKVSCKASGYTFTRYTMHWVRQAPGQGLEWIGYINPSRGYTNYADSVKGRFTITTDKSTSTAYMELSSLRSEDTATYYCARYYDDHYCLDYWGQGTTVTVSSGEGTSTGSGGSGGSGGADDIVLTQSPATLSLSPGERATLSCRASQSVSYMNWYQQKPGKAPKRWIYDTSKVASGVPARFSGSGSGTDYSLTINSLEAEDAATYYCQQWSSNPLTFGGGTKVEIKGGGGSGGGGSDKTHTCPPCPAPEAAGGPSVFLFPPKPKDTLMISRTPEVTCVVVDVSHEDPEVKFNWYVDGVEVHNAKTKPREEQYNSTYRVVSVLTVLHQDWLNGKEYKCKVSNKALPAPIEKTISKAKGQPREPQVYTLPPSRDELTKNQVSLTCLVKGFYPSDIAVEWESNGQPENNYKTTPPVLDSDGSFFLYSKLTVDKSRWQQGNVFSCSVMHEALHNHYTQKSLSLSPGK
light: EIVLTQSPGTLSLSPGERATLSCRASQSVSANYLAWYQQKPGQAPRLLIYGASSRATGIPDRFSGSGSGTDFTLTISRLEPEDFAVYYCQQSYQRPLTFGQGTKVEIKRTVAAPSVFIFPPSDEQLKSGTASVVCLLNNFYPREAKVQWKVDNALQSGNSQESVTEQDSKDSTYSLSSTLTLSKADYEKHKVYACEVTHQGLSSPVTKSFNRGEC
Regarding B1, the binding result in test [1] is recorded as “no binding (tested: 1 or 0.1 µg/ml)”.

B2: 6B1 BisAb C2+2 (L2K scFv fused to the C-terminus of the 6B1 IgG1 heavy chain) (bispecific antibody)
heavy: not shown
light: B1 light
notes: copies: 2 + 2
For B2, in test [1], the binding result is recorded as “no binding (tested: 1 or 0.1 µg/ml)”.

B3: 6B1 mAb (TCR mimic, full length human IgG1) (antibody, V domains shown)
VH: EVQLLESGGGLVQPGGSLRLSCAASGFTFSSYAMSWVRQAPGKGLEWVSEISGGGGYTDYADSVKGRFTISRDNSKNTLYLQMNSLRAEDTAVYYCARQMYYYYGMDVWGQVTTVTVSS
VL: EIVLTQSPGTLSLSPGERATLSCRASQSVSANYLAWYQQKPGQAPRLLIYGASSRATGIPDRFSGSGSGTDFTLTISRLEPEDFAVYYCQQSYQRPLTFGQGTKVEIK
notes: Full length human IgG1; Conjugated to APC for direct staining of tumor cell lines; also called mAb 6B1; Mab 6B1
Regarding B3, the binding result in test [2] is “no binding”; in test [3], “no binding”; in test [4] it was “no binding (tested: 10 µg/ml to 0.1 µg/ml)”.
